From the supplement of paper PMC10567573

B1: RSAD1 (parent)
chain: YCNFNKYIPRRLEEAAMQKCLVTE
B2: GLTSCR2 (parent)
chain: LARRRRRRQARREAEADKPRRLGR

Variants of: B1
Assay: protein stability index of a GFP-peptide fusion (GPS, HEK-293T) (PSI 1-6); higher = more stable
Conditions: c terminus: a fixed tail appended
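Note: lentivirally expressed fusions sorted by FACS into six bins by GFP to DsRed ratio, PSI derived from sequencing read proportions per bin multiplied by bin number.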

Variant	protein stability index
YYNFNKYIPRRLEEAAMQKCLVTE [C2Y]	1.89
YPNFNKYIPRRLEEAAMQKCLVTE [C2P]	1.44
YQNFNKYIPRRLEEAAMQKCLVTE [C2Q]	1.87
YFNFNKYIPRRLEEAAMQKCLVTE [C2F]	2.35
YSNFNKYIPRRLEEAAMQKCLVTE [C2S]	1.84
YNNFNKYIPRRLEEAAMQKCLVTE [C2N]	2.84
YMNFNKYIPRRLEEAAMQKCLVTE [C2M]	2.31
YWNFNKYIPRRLEEAAMQKCLVTE [C2W]	1.82
YENFNKYIPRRLEEAAMQKCLVTE [C2E]	2.98
YGNFNKYIPRRLEEAAMQKCLVTE [C2G]	2.48
YTNFNKYIPRRLEEAAMQKCLVTE [C2T]	2.2
YRNFNKYIPRRLEEAAMQKCLVTE [C2R]	2.42
YDNFNKYIPRRLEEAAMQKCLVTE [C2D]	2.88
YKNFNKYIPRRLEEAAMQKCLVTE [C2K]	2.31
YINFNKYIPRRLEEAAMQKCLVTE [C2I]	1.76
YHNFNKYIPRRLEEAAMQKCLVTE [C2H]	3.01
YANFNKYIPRRLEEAAMQKCLVTE [C2A]	2.33
YCVFNKYIPRRLEEAAMQKCLVTE [N3V]	1.85
YCEFNKYIPRRLEEAAMQKCLVTE [N3E]	1.99
YCHFNKYIPRRLEEAAMQKCLVTE [N3H]	2.74
YCWFNKYIPRRLEEAAMQKCLVTE [N3W]	1.96

Variant	protein stability index
YCYFNKYIPRRLEEAAMQKCLVTE [N3Y]	1.63
YCSFNKYIPRRLEEAAMQKCLVTE [N3S]	1.84
YCPFNKYIPRRLEEAAMQKCLVTE [N3P]	2.03
YCKFNKYIPRRLEEAAMQKCLVTE [N3K]	1.84
YCCFNKYIPRRLEEAAMQKCLVTE [N3C]	1.95
YCLFNKYIPRRLEEAAMQKCLVTE [N3L]	1.66
YCRFNKYIPRRLEEAAMQKCLVTE [N3R]	1.66
YCQFNKYIPRRLEEAAMQKCLVTE [N3Q]	2.04
YCMFNKYIPRRLEEAAMQKCLVTE [N3M]	2.24
YCIFNKYIPRRLEEAAMQKCLVTE [N3I]	1.61
YCFFNKYIPRRLEEAAMQKCLVTE [N3F]	2.4
YCTFNKYIPRRLEEAAMQKCLVTE [N3T]	2.6
YCGFNKYIPRRLEEAAMQKCLVTE [N3G]	2.94
YCAFNKYIPRRLEEAAMQKCLVTE [N3A]	2.13
YCNENKYIPRRLEEAAMQKCLVTE [F4E]	2.07
YCNLNKYIPRRLEEAAMQKCLVTE [F4L]	2.08
YCNINKYIPRRLEEAAMQKCLVTE [F4I]	1.67
YCNDNKYIPRRLEEAAMQKCLVTE [F4D]	2.58
YCNCNKYIPRRLEEAAMQKCLVTE [F4C]	1.94
YCNGNKYIPRRLEEAAMQKCLVTE [F4G]	2.66
YCNHNKYIPRRLEEAAMQKCLVTE [F4H]	1.21

Variant	protein stability index
YCNKNKYIPRRLEEAAMQKCLVTE [F4K]	2.26
DCNFNKYIPRRLEEAAMQKCLVTE [Y1D]	2.47
VCNFNKYIPRRLEEAAMQKCLVTE [Y1V]	1.99
HCNFNKYIPRRLEEAAMQKCLVTE [Y1H]	2.94
LCNFNKYIPRRLEEAAMQKCLVTE [Y1L]	2.72
KCNFNKYIPRRLEEAAMQKCLVTE [Y1K]	2.63
PCNFNKYIPRRLEEAAMQKCLVTE [Y1P]	2.27
ICNFNKYIPRRLEEAAMQKCLVTE [Y1I]	2.76
SCNFNKYIPRRLEEAAMQKCLVTE [Y1S]	2.46
GCNFNKYIPRRLEEAAMQKCLVTE [Y1G]	1.89
NCNFNKYIPRRLEEAAMQKCLVTE [Y1N]	2.58
RCNFNKYIPRRLEEAAMQKCLVTE [Y1R]	1.96
CCNFNKYIPRRLEEAAMQKCLVTE [Y1C]	1.97
TCNFNKYIPRRLEEAAMQKCLVTE [Y1T]	2.38
FCNFNKYIPRRLEEAAMQKCLVTE [Y1F]	1.68
MCNFNKYIPRRLEEAAMQKCLVTE [Y1M]	2.32
QCNFNKYIPRRLEEAAMQKCLVTE [Y1Q]	3.07
ACNFNKYIPRRLEEAAMQKCLVTE [Y1A]	2.31
ECNFNKYIPRRLEEAAMQKCLVTE [Y1E]	2.49
WCNFNKYIPRRLEEAAMQKCLVTE [Y1W]	2.65

Variants of: B2
Assay: as above
Conditions: c terminus: a fixed tail appended

Variant	protein stability index
LARRRRRRQARREAEADKPRRLIR [G23I]	4.53
LARRRRRRQARREAEADKPRRLYR [G23Y]	4.44
LARRRRRRQARREAEADKPRRLFR [G23F]	4.44
LARRRRRRQARREAEADKPRRLSR [G23S]	5.18
LARRRRRRQARREAEADKPRRLHR [G23H]	4.79
LARRRRRRQARREAEADKPRRLMR [G23M]	4.17
LARRRRRRQARREAEADKPRRLAR [G23A]	4.34
LARRRRRRQARREAEADKPRRLRR [G23R]	4.57
LARRRRRRQARREAEADKPRRLCR [G23C]	4.57
LARRRRRRQARREAEADKPRRLPR [G23P]	4.77
LARRRRRRQARREAEADKPRRLLR [G23L]	4.18
LARRRRRRQARREAEADKPRRLVR [G23V]	4.45
LARRRRRRQARREAEADKPRRLDR [G23D]	4.9
LARRRRRRQARREAEADKPRRLQR [G23Q]	4.51
LARRRRRRQARREAEADKPRRLWR [G23W]	4.46
LARRRRRRQARREAEADKPRRLKR [G23K]	3.76
LARRRRRRQARREAEADKPRRLTR [G23T]	5.05
LARRRRRRQARREAEADKPRRLER [G23E]	4.68
LARRRRRRQARREAEADKPRRLNR [G23N]	4.64
LARRRRRRQARREAEADKPRRDGR [L22D]	5.31
LARRRRRRQARREAEADKPRRMGR [L22M]	4.74
LARRRRRRQARREAEADKPRRRGR [L22R]	5.04
LARRRRRRQARREAEADKPRRAGR [L22A]	4.74
LARRRRRRQARREAEADKPRRFGR [L22F]	3.87
LARRRRRRQARREAEADKPRRNGR [L22N]	4.62
LARRRRRRQARREAEADKPRRWGR [L22W]	4.62

Variant	protein stability index
LARRRRRRQARREAEADKPRREGR [L22E]	5.15
LARRRRRRQARREAEADKPRRGGR [L22G]	4.3
LARRRRRRQARREAEADKPRRTGR [L22T]	4.74
LARRRRRRQARREAEADKPRRHGR [L22H]	4.23
LARRRRRRQARREAEADKPRRKGR [L22K]	4.71
LARRRRRRQARREAEADKPRRSGR [L22S]	5.13
LARRRRRRQARREAEADKPRRQGR [L22Q]	4.87
LARRRRRRQARREAEADKPRRYGR [L22Y]	4.35
LARRRRRRQARREAEADKPRRVGR [L22V]	5.4
LARRRRRRQARREAEADKPRRPGR [L22P]	4.15
LARRRRRRQARREAEADKPRRCGR [L22C]	4.53
LARRRRRRQARREAEADKPRRIGR [L22I]	4.7
LARRRRRRQARREAEADKYRRLGR [P19Y]	4.26
LARRRRRRQARREAEADKNRRLGR [P19N]	4.58
LARRRRRRQARREAEADKHRRLGR [P19H]	4.09
LARRRRRRQARREAEADKTRRLGR [P19T]	4.39
LARRRRRRQARREAEADKIRRLGR [P19I]	3.81
LARRRRRRQARREAEADKRRRLGR [P19R]	4.54
LARRRRRRQARREAEADKARRLGR [P19A]	3.92
LARRRRRRQARREAEADKLRRLGR [P19L]	3.91
LARRRRRRQARREAEADKWRRLGR [P19W]	3.92
LARRRRRRQARREAEADKKRRLGR [P19K]	4.61
LARRRRRRQARREAEADKVRRLGR [P19V]	4.08
LARRRRRRQARREAEADKDRRLGR [P19D]	4.91
LARRRRRRQARREAEADKERRLGR [P19E]	4.64
LARRRRRRQARREAEADKMRRLGR [P19M]	4.08

Variant	protein stability index
LARRRRRRQARREAEADKCRRLGR [P19C]	4.29
LARRRRRRQARREAEADKSRRLGR [P19S]	4.16
LARRRRRRQARREAEADKGRRLGR [P19G]	4.57
LARRRRRRQARREAEADKQRRLGR [P19Q]	4.19
LARRRRRRQARREAEADKPHRLGR [R20H]	5.18
LARRRRRRQARREAEADKPVRLGR [R20V]	4.65
LARRRRRRQARREAEADKPLRLGR [R20L]	4.64
LARRRRRRQARREAEADKPKRLGR [R20K]	4.64
LARRRRRRQARREAEADKPFRLGR [R20F]	4.04
LARRRRRRQARREAEADKPPRLGR [R20P]	5.45
LARRRRRRQARREAEADKPGRLGR [R20G]	4.91
LARRRRRRQARREAEADKPARLGR [R20A]	4.25
LARRRRRRQARREAEADKPERLGR [R20E]	4.52
LARRRRRRQARREAEADKPQRLGR [R20Q]	4.6
LARRRRRRQARREAEADKPTRLGR [R20T]	4.82
LARRRRRRQARREAEADKPMRLGR [R20M]	4.38
LARRRRRRQARREAEADKPDRLGR [R20D]	4.11
LARRRRRRQARREAEADKPNRLGR [R20N]	4.75
LARRRRRRQARREAEADKPSRLGR [R20S]	5.26
LARRRRRRQARREAEADKPCRLGR [R20C]	4.45
LARRRRRRQARREAEADKPIRLGR [R20I]	4.36
LARRRRRRQARREAEADKPWRLGR [R20W]	4.41
LARRRRRRQARREAEADKPYRLGR [R20Y]	4.61
LARRRRRRQARREAEADKPRRLGM [R24M]	4.28
LARRRRRRQARREAEADKPRRLGF [R24F]	4.3
LARRRRRRQARREAEADKPRRLGA [R24A]	4.72

Variant	protein stability index
LARRRRRRQARREAEADKPRRLGC [R24C]	4.44
LARRRRRRQARREAEADKPRRLGG [R24G]	4.79
LARRRRRRQARREAEADKPRRLGY [R24Y]	4.8
LARRRRRRQARREAEADKPRRLGD [R24D]	5.02
LARRRRRRQARREAEADKPRRLGH [R24H]	4.8
LARRRRRRQARREAEADKPRRLGL [R24L]	4.58
LARRRRRRQARREAEADKPRRLGK [R24K]	4.67
LARRRRRRQARREAEADKPRRLGW [R24W]	3.84
LARRRRRRQARREAEADKPRRLGN [R24N]	4.28
LARRRRRRQARREAEADKPRRLGV [R24V]	4.42
LARRRRRRQARREAEADKPRRLGP [R24P]	4.67
LARRRRRRQARREAEADKPRRLGT [R24T]	4.6
LARRRRRRQARREAEADKPRRLGQ [R24Q]	4.62
LARRRRRRQARREAEADKPRRLGI [R24I]	4.47
LARRRRRRQARREAEADKPRRLGE [R24E]	4.12
LARRRRRRQARREAEADKPRRLGS [R24S]	4.85
LARRRRRRQARREAEADNPRRLGR [K18N]	4.96
LARRRRRRQARREAEADHPRRLGR [K18H]	4.98
LARRRRRRQARREAEADRPRRLGR [K18R]	5.02
LARRRRRRQARREAEADMPRRLGR [K18M]	5.14
LARRRRRRQARREAEADWPRRLGR [K18W]	3.88
LARRRRRRQARREAEADVPRRLGR [K18V]	5.01
LARRRRRRQARREAEADPPRRLGR [K18P]	5.41
LARRRRRRQARREAEADIPRRLGR [K18I]	4.34
LARRRRRRQARREAEADLPRRLGR [K18L]	5.11
LARRRRRRQARREAEADTPRRLGR [K18T]	4.29

Variant	protein stability index
LARRRRRRQARREAEADSPRRLGR [K18S]	4.74
LARRRRRRQARREAEADYPRRLGR [K18Y]	4.85
LARRRRRRQARREAEADQPRRLGR [K18Q]	4.97
LARRRRRRQARREAEADKPRLLGR [R21L]	4.36
LARRRRRRQARREAEADKPRTLGR [R21T]	4.83
LARRRRRRQARREAEADKPRPLGR [R21P]	3.66
LARRRRRRQARREAEADKPRWLGR [R21W]	3.64
LARRRRRRQARREAEADKPRNLGR [R21N]	4.73
LARRRRRRQARREAEADKPRVLGR [R21V]	4.67
LARRRRRRQARREAEADKPRELGR [R21E]	4.8
LARRRRRRQARREAEADKPRGLGR [R21G]	4.39
LARRRRRRQARREAEADKPRFLGR [R21F]	4.58
LARRRRRRQARREAEADKPRHLGR [R21H]	3.99
LARRRRRRQARREAEADKPRQLGR [R21Q]	5.13
LARRRRRRQARREAEADKPRMLGR [R21M]	4.52
LARRRRRRQARREAEADKPRYLGR [R21Y]	4.94
LARRRRRRQARREAEADKPRKLGR [R21K]	4.44
LARRRRRRQARREAEADKPRALGR [R21A]	5.06
LARRRRRRQARREAEADKPRSLGR [R21S]	5.15
LARRRRRRQARREAEADKPRDLGR [R21D]	4.65
LARRRRRRQARREAEADKPRILGR [R21I]	3.94
LARRRRRRQARREAEADKPRCLGR [R21C]	4.84
